Assay results from the nanobody polyreactivity screen of Harvey et al. (2022).

test: yeast display, Sf9 membrane polyspecificity reagent, FACS + sequencing; frameworks hold sequencing errors
In short: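 A nanobody's polyreactivity label depends on the gate it was sorted from. Yeast display cells were stained with 10% biotinylated, detergent-solubilized Sf9 membrane reagent for 1 hour at 4 °C, enriched on streptavidin microbeads and sorted by FACS. The low and high (top ~1%) gates were set on anti-HA fluorescence for expression and streptavidin fluorescence for reagent binding.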

Row | Sequence | polyreactivity (PSR sort gate)
1 | QVQLVESGGGLVQAGGSLRLSCAASGRILEYNAMGWYRQAPGKERELVAAITSDGSTNYADSVKGRFTISRDNAKNTVYLQMNSLKPEDTAVYYCNTRYSLYTKYAYYDELDYWGQGTQVTLSS | low polyreactivity
2 | QVQLVESGGGLVQAGGSLRLSCAASGRILGGNTMGWYRQAPGKERELVAGISYSGGRTYYADSVKGRFTISRDNAKHTVYLQMNSLKPEDTAVYYCAAEYDWYSYQLDYWGQGTQVTVSS | high polyreactivity
3 | QVQLVESGGGLVQAGGSLRLSCAASGRILGNNVMGWYRQAPGKERELVAAITSSGGRTYYADSVKGRFTISRDNAKNTVYLQMNSLKPVDTAVYYCAAERRYYGKFNYWGQGTQVTVSS | high polyreactivity
4 | QVQLVESGGGLVQAGGSLRLSCAASGRILGRNAMGWYRQAPGKERELVATITSRGGSTYYADSVKGRFTISRDNAKNTVYLQMNSLKPEDTAVYYCAAPRYYYYSYDYWGQGTQVTVSS | high polyreactivity
5 | QVQLVESGGGLVQAGGSLRLSCAASGRILGRYAMGWYRQAPGKERELVAAITARTGSTYYADSVKGRFTISRDNAKNTVYLQMNSLKPEDTAVYYCAAERGWWRNDFDYWGQGTQVTVSS | high polyreactivity
6 | QVQLVESGGGLVQAGGSLRLSCAASGRILGTNAKGWYRQAPGKERELVAAISRGGSTYYADSVKGRFTISRDNANNTVYLQMNSLKPEDTAVFYCAVTVLSKRRYYYWGQGTQVTVSS | high polyreactivity
7 | QVQLVESGGGLVQAGGSLRLSCAASGRILGYYAMGWYRQAPGKERELVAAISSGDSTNYADSVKGRFTISRDNAKNTVYLQMNSLKPEDTAVYYCAAKGWIWNPYNYWGQGTQVTVSS | low polyreactivity
8 | QVQLVESGGGLVQAGGSLRLSCAASGRILHGYAMGWYRQAPGKERELVAAITSSGGRTYYADSVKGRFPISRDNAKNTVYLQMISLKPEDTAVYYCAADRPAYRTGDSKYDYWGQGTQVTVSS | low polyreactivity
9 | QVQLVESGGGLVQAGGSLRLSCAASGRILHGYAMGWYRQAPGKERELVAAITSSGGRTYYADSVKGRFTISRDNAKNPVYLQMNSLKPEDTAVYYCAADRPAYRTGESKYDYWGQGTQVTVSS | low polyreactivity
10 | QVQLVESGGGLVQAGGSLRLSCAASGRILIGNALGWYRQAPGKERELVAAISKRGGSTYYADSVKGRFTMSRDNAKNTDYLHMNSLKPEDTAVYYCNIESLYREFDYWGQGTLVTVSS | low polyreactivity
11 | QVQLVESGGGLVQAGGSLRLSCAASGRILNINAMGWYRQAPGKERELVAAITWRGGRTFYADSVKGRFTISRDNAKNTVYLQMNSLKPEDTAVYYCAKGYRGYSYGYWGQGTQVTVSS | high polyreactivity
12 | QVQLVESGGGLVQAGGSLRLSCAASGRILNINAMGWYRQAPGQERELVAAITWRGGRTFYADSVKGRFTISRDNAKNTVYLQMNSLKPEDTAVYYCAASSNTWYPTGYYWGQGTQVTVSS | high polyreactivity
13 | QVQLVESGGGLVQAGGSLRLSCAASGRILPGYALGWYRQAPGKERELVAAIRGNGDSTYYADSVKGRFTISRDNAKNTVYLQMNSLKPEDTAVYYCAARRVSTIPRDSYRGRKYGYWGQGTQVTVSS | low polyreactivity
14 | QVQLVESGGGLVQAGGSLRLSCAASGRILPSNAMGWYRQAPGKEREFVAGISGSGGSTYYADSVKGRFTISRDNAKNTVYLQMNSLKPEDTAVYYCAAGRAYDGTKHDYWGQGTQVTVSS | high polyreactivity
15 | QVQLVESGGGLVQAGGSLRLSCAASGRILPWYAMGWYRQAPGKERELVARIRSTDSTNYADSVKGRFTISRDNAKNTVYLQMNSLKPEDTAVYYCAKVQWGFPYAWLGSDYWGQGTQVTVSS | low polyreactivity
16 | QVQLVESGGGLVQAGGSLRLSCAASGRILPYNVMGWYRQAPGKEREFVAAITGSGGDTYYADSVKGRFTISRDNAKNTVYLQMNSLKPEDTAVYYCAAAPYIGGSFGQTPGSGYWGQGTQVTVSS | low polyreactivity
17 | QVQLVESGGGLVQAGGSLRLSCAASGRILPYNVMGWYRQATGKEREFVAAITGSGGDTYYADSVKGRFTISRDNAKNTVYLQMHILKPVDTAVYYCAAAPYIGGSFGQTPGSGYWGQGTQVTVSS | low polyreactivity
18 | QVQLVESGGGLVQAGGSLRLSCAASGRILQYNDMGWYRPAPGKERELVAAIDWSGGITYYADSVKGRFTISRDNAKNTVYLQMNSLKPEDTAVYYCNADFEYSYLYRMEYWGQGTQVTVSS | low polyreactivity
19 | QVQLVESGGGLVQAGGSLRLSCAASGRILRFYAMGWYRQAPGKERELVATISRSGGSTYYADSVKGRFTISRDNAKNTVYLQMNSLKPEDTAVYYSNAKFKGVSYKMDYWGQGTQVTVSS | high polyreactivity
20 | QVQLVESGGGLVQAGGSLRLSCAASGRILRSNAMGWYRQAPGKERELVAAITSSGGSTRYADSVKGRFTISRDNAKNTVYLQMNSLKPEDTAVYYCAARYRQGFQAGHGYWGQGTQVTVSS | high polyreactivity
21 | QVQLVESGGGLVQAGGSLRLSCAASGRILRYNAMGWYRQAPGKERELVAAITRTGGITRYADSVKGRFTISRDNAKNTVSLQMNSLNPQDTAVYYCNTYPRYGYVLSWPQGYDYWGQGTQVTVSS | low polyreactivity
22 | QVQLVESGGGLVQAGGSLRLSCAASGRILRYNAMGWYRQAPGKERELVASISGNGGSTYYADSVKGRFTISRDNAKNTVYVQMNSLKPEDTAVYYCNKYYYSSRGQKEYDYWGQGTQVTVSS | low polyreactivity

Row | Sequence | polyreactivity (PSR sort gate)
23 | QVQLVESGGGLVQAGGSLRLSCAASGRILRYYAMGWYRQAPGKELELVASISRGGSTYYADSVKGRFTISRDNAKNTVYLQMNSLKPEDTAVYYCATEVRRSTREFGYWGQGTQVTVSS | high polyreactivity
24 | QVQLVESGGGLVQAGGSLRLSCAASGRILRYYTMGWYRQAPGKERELVAAITWSGGSTNYADSVKGRFTISRDYAKNTVYLQMNSLKPEDSEVYYCNADRRKYYFTYGSWGQGTQVTVSS | high polyreactivity
25 | QVQLVESGGGLVQAGGSLRLSCAASGRILSANAMGWYRQAPGTERELVAAITYSGDNTYYADSVKGRFTISRDNAKNTVYLQMNSLKPEDTAVYYCAREFQVDGGEEDYWGQGSQVTVSS | low polyreactivity
26 | QVQLVESGGGLVQAGGSLRLSCAASGRILSLYAMGWNRQAPGKERELVASINWSDGSTYYADSVKGRFTISRDNAKNTVYLQMNSLKPEDTAVYYCTVDVRSYVAGYDYWGQGTQVTVSS | low polyreactivity
27 | QVQLVESGGGLVQAGGSLRLSCAASGRILSTYAMGWYRQAPGKERELVAVISWTGGRTYYADSVKGRFTISRYNAKNTVYLQMNSLKPEDTAVYYCNARPYYGGTRGRQYEYGYWGQGSQVTVSS | high polyreactivity
28 | QVQLVESGGGLVQAGGSLRLSCAASGRILSYYAMGWYRQAPGKERELVARITGRGGSTYYADSVKGRFTISRDNAKNTVYLQMNSLKPEDTAVYYCAAVPWVVYSGYDYWGQGTQVTVSS | low polyreactivity
29 | QVQLVESGGGLVQAGGSLRLSCAASGRILTSNAMGWYRQAPGKERELVAAISWSGGSTYYADSVKGRFTISRDNAKNTVYLQMNSLKPEDTAVYYCAARSIGRAGGYHYWGQGTQVTVSS | low polyreactivity
30 | QVQLVESGGGLVQAGGSLRLSCAASGRILTTNAMGLYRQETGKERELVAAITRSGGRTYYADSVKGRFTISRDNAKNTVYLQMNSLKPEDTAVYYCNAVTTRLALYDYWGQGTQVTVSS | high polyreactivity
31 | QVQLVESGGGLVQAGGSLRLSCAASGRILVSYAMGWYRQAPGKERELVAAISRSGGSTYYADSVKGRFTISRDNAKNTVYLQMNSLKPEDTAVYYCNVYRFSRYDYWGQGTQVTVSS | high polyreactivity
32 | QVQLVESGGGLVQAGGSLRLSCAASGRILVTYAMGWYRQAPGKERELVAAITRGTNTNYADSVKGRFTISRDNAKNTVYLQMNSLKPEDTAVYYCAARRYRYRYGYGGDYWGQGTQVTVSS | high polyreactivity
33 | QVQLVESGGGLVQAGGSLRLSCAASGRILWGNVMGWYRKAPGKERELVATITHGGSTNYADSVKGRFTISRDNAKNTVYLQMNSLKPEDTAVYYCARATRIQFYRRPYNYWGQGTQVTVSS | high polyreactivity
34 | QVQLVESGGGLVQAGGSLRLSCAASGRILYGNAMGWYRKAPGKERELVAAITRRGGSTYYADSVKGRFTISRDNAKNTVYLQMNSLKPEDTAVYYCNKVVGYRDTDFDYWGQGTQVTVSS | high polyreactivity
35 | QVQLVESGGGLVQAGGSLRLSCAASGRILYRYAMGWSRQAAGTEREVVAAISRSGGDTYYADSVKGRFTISRDNAKNTVYLQMNSLKPEDTAVYYCAGYSSWSGGLGGVYYWGQGTQVTVSS | low polyreactivity
36 | QVQLVESGGGLVQAGGSLRLSCAASGRILYVNAMGWYRQAPGKERELVAAISWRGGRTYYADSVKGRFTISRDHAKNTVYLQMNSLKPEDTAVYYCAARARGGYQRDYWGQGTQVTVSS | high polyreactivity
37 | QVQLVESGGGLVQAGGSLRLSCAASGRILYYYAMGWYRQAPGKERELVAAINSSGGSTYYADSVKGRFTISRDNAKNTVYLQMNSLKPEDTAVYYCAAVRSKLYYYWGQGTQVTVSS | high polyreactivity
38 | QVQLVESGGGLVQAGGSLRLSCAASGRIPAYAMGWYRQAPWKERELVAAITWSGGSTYYADSVKGRFTISRDNAKNTVYLQMISLKPEDTSVDYCAAKQWGRYGYWGKGTQVTVSS | high polyreactivity
39 | QVQLVESGGGLVQAGGSLRLSCAASGRIRYAMGWYRQAPGKERELVAGITWSGGRTYYADSVKGRFTISRDNAKNTVYLQMNSLKPEDTAVYYCAAATPYRYNYWGQGTQVTVSA | high polyreactivity
40 | QVQLVESGGGLVQAGGSLRLSCAASGRISARYVMGWYRQAPGKERELVAAISWSGDRTYYADSVKGRFTISRDNAKNTVYLQMNSLKPEDTAVYYCANGFYSRLAYGYGYWGQGTQVTVSS | high polyreactivity
41 | QVQLVESGGGLVQAGGSLRLSCAASGRISDDYAMGWYRQAPGKERELVADITSGGNTYYADSVKGRFTISRDNAKNTVYLQMNSLKPEDTAVYYCNAYYVGYIRYWTNKLVDYWGQGTQVTVSS | high polyreactivity
42 | QVQLVESGGGLVQAGGSLRLSCAASGRISFNAMGWYRQAPGKERELVAAITSSGGRTYYADSVKGRFTISRDNAKNTVYLQMNSLKPEDTAVYYCATGSPGGSPGWGRTTGRLGYWGQGTQVTVSS | high polyreactivity
43 | QVQLVESGGGLVQAGGSLRLSCAASGRISFVNAMGWYRQAPGKERELVAAISRGGSTNYADSVKGRFTISRDNAKNTVYLQMNSLKPEDTAVYYCAAQGNNYVRHTYGYWGQGTQVTVSS | low polyreactivity
